Data on 16 molecules can be found in patent US20160024210A1 (AstraZeneca / MedImmune, published 2016).

For experiment [1], the target named is T1, H7CRECD human IgG1 Fc fusion protein (human, UniProt Q96BF3 23-150).
T1 construct: also called H7CR fusion protein; not shown: human IgG1 Fc
T1 sequence: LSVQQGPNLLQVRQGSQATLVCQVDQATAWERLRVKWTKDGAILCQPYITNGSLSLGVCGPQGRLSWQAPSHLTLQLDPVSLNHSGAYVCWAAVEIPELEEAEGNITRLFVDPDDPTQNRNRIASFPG
Put plainly: ELISA, H7CRECD human IgG1 Fc immobilized, anti-human IgG4 HRP detection. The procedure:
100 μl 1 μg/ml H7CRECD human IgG1 Fc fusion protein diluted in PBS was immobilized on flat bottom 96 well plate (Costar 9017) overnight at 4° C. Plates were washed twice with PBS+0.1% PS-20 and blocked with 200 μl/well PBS 10% FBS at RT for 1 hr. 100 μl human IgG4 Fc chimeric 1.3 and 14 selected 1.3 humanized variants diluted in PBS 10% FBS were added to each well and incubated at RT for 1 hr. Plates were washed three times and 100 μl 1 μg/ml anti-human IgG4 HRP (Southern Biotech) was added to each well and incubated at RT for 1 hr. Plates were washed six times and 100 μl TMB substrate (SurModics) was added to each well for 5-15 mins. 100 μl stop solution (0.1M Sulfuric acid) was added to each well. Plates were read at Absorbance 450 nm by PerkinElmer EnVision 2104 Multilabel Reader.
On the technique in general: In an ELISA, binding on a coated surface is turned into a signal by an enzyme label.

The target in experiment [2] is T2, human H7CR (B7-H7 counter-receptor) (human, UniProt Q96BF3 23-282).
T2 construct: Used for H7CR on CHO.hH7CR transfectants, human T cells and tonsil tissue; also called B7-H7CR; CD28H
T2 sequence: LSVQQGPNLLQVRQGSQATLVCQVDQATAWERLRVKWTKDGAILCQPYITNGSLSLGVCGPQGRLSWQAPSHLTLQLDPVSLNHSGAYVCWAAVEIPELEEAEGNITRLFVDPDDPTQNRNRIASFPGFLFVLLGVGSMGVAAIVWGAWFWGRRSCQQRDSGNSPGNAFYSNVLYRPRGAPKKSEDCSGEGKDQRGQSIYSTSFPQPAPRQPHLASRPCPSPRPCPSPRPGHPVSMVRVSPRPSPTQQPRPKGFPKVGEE
The experiment can be described thus: flow cytometry titration on CHO.hH7CR transfectants, one-site specific binding fit of MFI. The procedure: (§1) A serial dilution of chimeric 1.3 and 4.5 of 0, 0.1 ng, 0.3 ng, 1 ng, 3 ng, 10 ng, 30 ng, 100 ng, 300 ng, 1 μg, 3 μg and 10 μg were added to the cells and incubated at 4° C. for 30 min. Cells were then washed twice with 2 ml flow cytometry buffer, and resuspended in 100 μl flow cytometry buffer. 1 μl anti-hIg PE secondary antibody (Biolegend) was added and incubated with the cells for 15 mins Samples were then washed and resuspended in 100 μl flow cytometry buffer. Flow Cytometry data was acquired using BD Canto (BD Biosciences) in plate format and analyzed by FlowJo software. Staining data (MFI) was then input into Prism 5 software to generate binding curve. Curve-fit using one-site specific binding algorithm calculates individual KD for each antibody.
A general note: Flow cytometry measures light scatter and fluorescence of single cells or particles in a stream.

Experiment [3] concerns the target T2, human H7CR (B7-H7 counter-receptor). Put plainly: flow cytometry, MFI against antibody concentration on human naive CD4+CD45RA+ T cells, anti-hIg PE secondary antibody, one-site specific binding fit. As to the method:
as §1

For experiment [4] the target is unchanged. Put plainly: flow cytometry, MFI against antibody concentration on human naive CD8+CD45RA+ T cells, anti-hIg PE secondary antibody, one-site specific binding fit. The procedure: as §1

B1: human IgG4 Fc chimeric 1.3 antibody (antibody, V domains shown)
VH: QIQLQESGPGLVKPSQSLSLTCSVTGFSISTSGYYWTWIRQFPGKRLEWMGYINYGGGTSYNPSLKSRISITRDTSKNQFLLHLNSVTTEDTATYCCATMADRFAFFDVWGQGIQVTVSS
VL: DIVMTQSPSSLAVSAGEKVTISCLSSQSLFSSNTNRNYLNWYLQKPGQSPKLLIYHASTRLTGVPDRFIGSGSGTDFTLTISSVQAEDLGDYYCQHHYETPLTFGDGTKLEIKR
notes: also called parental chimeric 1.3 antibody
The EC50 is the concentration that produces a half-maximal response. Lower therefore signals a more potent agent. A word on the Kd: it is the constant that tells how readily two partners part at equilibrium. Lower therefore signals higher affinity. In experiment [1], B1 yielded an EC50 of 0.055 nM. In addition, the Kd in experiment [2] was determined as 5.9 nM; in experiment [3] it was 24 nM; in experiment [4], 27 nM.

B2: chimeric 4.5 antibody (antibody, human IgG4 S228P, kappa, V domains shown)
VH: QIQLQESGPGLVKPSQSLSLTCSVTGFSITTGGYYWNWIRQFPGKKLEWMGYIYTSGRTSYNPSLKSRISITRDTSKNQFFLQLNSMTTEDTATYYCADMADKGGWFAYWGQGTLVTVSS
VL: DIVMTQSPSSLAVSAGEKVTISCLSSQSLFSSNTKRNYLNWYLQKPGQSPKLLIYHASTRLTGVPGRFIGSGSGTDFTLTVSTVQAEDLGDYFCQQHYETPLTFGDGTRLEIKR
Turning to B2, the results for the Kd in experiment [2], in experiment [3] and in experiment [4] were 3.5 nM, 6.9 nM and 6.9 nM, respectively.

B3: 1.3 humanized variant V8 (heavy 1C / light 1B) (antibody, V domains shown)
VH: QVQLQESGPGLVKPSQTLSLTCTVSGFSISTSGYYWSWIRQFPGKRLEWMGYINYGGGTSYNPSLKSRVTISRDTSKNQFSLKLSSVTAADTATYCCATMADRFAFFDVWGQGTMVTVSS
VL: DIVMTQSPDSLAVSLGERATINCKSSQSLFSSNTNRNYLNWYQQKPGQSPKLLIYHASTRLSGVPDRFSGSGSGTDFTLTISSLQAEDVADYYCQHHYETPLTFGDGTKLEIK
notes: Variable domains only; detected with anti-human IgG4 HRP
Regarding B3, in experiment [1], the 50% effective concentration (EC50) stood at 0.74 nM.

B4: 1.3 humanized variant V4 (heavy 2A / light 1A) (antibody, V domains shown)
VH: QVQLQESGPGLVKPAQTLSLTCTVSGFSISTSGYYWSWIRQYPGKGLEWIGYINYGGGTYYNPSLKSRVTISVDTSKNQFSLKLTSVTAADTAVYHCATMADRFAFFDVWGQGTMVTVSS
VL: DIVMTQSPDSLAVSLGERATINCKSSQSLFSSNTNRNYLAWYQQKPGQPPKLLIYHASTRESGVPDRFSGSGSGTDFTLTISSLQAEDVAVYYCQHHYETPLTFGQGTKLEIK
notes: as for B3
For B4, the EC50 in experiment [1] came out at 1.08 nM.

B5: 1.3 humanized variant V5 (heavy 2B / light 1A) (antibody, V domains shown)
VH: QVQLQESGPGLVKPAQTLSLTCTVSGFSISTSGYYWSWIRQYPGKRLEWIGYINYGGGTSYNPSLKSRVTISRDTSKNQFSLKLTSVTAADTATYCCATMADRFAFFDVWGQGTMVTVSS
VL: DIVMTQSPDSLAVSLGERATINCKSSQSLFSSNTNRNYLAWYQQKPGQPPKLLIYHASTRESGVPDRFSGSGSGTDFTLTISSLQAEDVAVYYCQHHYETPLTFGQGTKLEIK
notes: as for B3
Molecule B5 displayed an EC50 in experiment [1] of 0.28 nM.

B6: 1.3 humanized variant V12 (heavy 1C / light 1C) (antibody, V domains shown)
VH: QVQLQESGPGLVKPSQTLSLTCTVSGFSISTSGYYWSWIRQFPGKRLEWMGYINYGGGTSYNPSLKSRVTISRDTSKNQFSLKLSSVTAADTATYCCATMADRFAFFDVWGQGTMVTVSS
VL: DIVMTQSPDSLAVSLGERATINCLSSQSLFSSNTNRNYLNWYLQKPGQSPKLLIYHASTRLSGVPDRFIGSGSGTDFTLTISSLQAEDVGDYYCQHHYETPLTFGDGTKLEIK
notes: as for B3
B6 had an EC50 in experiment [1] of 0.75 nM.

B7: 1.3 humanized variant V7 (heavy 1B / light 1B) (antibody, V domains shown)
VH: QVQLQESGPGLVKPSQTLSLTCTVSGFSISTSGYYWSWIRQHPGKRLEWIGYINYGGGTSYNPSLKSRVTISRDTSKNQFSLKLSSVTAADTAVYCCATMADRFAFFDVWGQGTMVTVSS
VL: DIVMTQSPDSLAVSLGERATINCKSSQSLFSSNTNRNYLNWYQQKPGQSPKLLIYHASTRLSGVPDRFSGSGSGTDFTLTISSLQAEDVADYYCQHHYETPLTFGDGTKLEIK
notes: as for B3
The molecule B7 had an EC50 in experiment [1] of 1.01 nM.

B8: 1.3 humanized variant V10 (heavy 2C / light 1B) (antibody, V domains shown)
VH: QVQLQESGPGLVKPAQTLSLTCTVSGFSISTSGYYWSWIRQFPGKRLEWMGYINYGGGTSYNPSLKSRVTISRDTSKNQFSLKLTSVTAADTATYCCATMADRFAFFDVWGQGTMVTVSS
VL: DIVMTQSPDSLAVSLGERATINCKSSQSLFSSNTNRNYLNWYQQKPGQSPKLLIYHASTRLSGVPDRFSGSGSGTDFTLTISSLQAEDVADYYCQHHYETPLTFGDGTKLEIK
notes: as for B3
The molecule B8 registered an EC50 in experiment [1] of 1.18 nM.

B9: 1.3 humanized variant V2 (heavy 1B / light 1A) (antibody, V domains shown)
VH: QVQLQESGPGLVKPSQTLSLTCTVSGFSISTSGYYWSWIRQHPGKRLEWIGYINYGGGTSYNPSLKSRVTISRDTSKNQFSLKLSSVTAADTAVYCCATMADRFAFFDVWGQGTMVTVSS
VL: DIVMTQSPDSLAVSLGERATINCKSSQSLFSSNTNRNYLAWYQQKPGQPPKLLIYHASTRESGVPDRFSGSGSGTDFTLTISSLQAEDVAVYYCQHHYETPLTFGQGTKLEIK
notes: as for B3
Take B9: in experiment [1], a half-maximal response (EC50) required 0.23 nM.

B10: 1.3 humanized variant V11 (heavy 1B / light 1C) (antibody, V domains shown)
VH: QVQLQESGPGLVKPSQTLSLTCTVSGFSISTSGYYWSWIRQHPGKRLEWIGYINYGGGTSYNPSLKSRVTISRDTSKNQFSLKLSSVTAADTAVYCCATMADRFAFFDVWGQGTMVTVSS
VL: DIVMTQSPDSLAVSLGERATINCLSSQSLFSSNTNRNYLNWYLQKPGQSPKLLIYHASTRLSGVPDRFIGSGSGTDFTLTISSLQAEDVGDYYCQHHYETPLTFGDGTKLEIK
notes: as for B3
Turning to B10, the EC50 in experiment [1] turned out to be 1.04 nM.

B11: 1.3 humanized variant V9 (heavy 2B / light 1B) (antibody, V domains shown)
VH: QVQLQESGPGLVKPAQTLSLTCTVSGFSISTSGYYWSWIRQYPGKRLEWIGYINYGGGTSYNPSLKSRVTISRDTSKNQFSLKLTSVTAADTATYCCATMADRFAFFDVWGQGTMVTVSS
VL: DIVMTQSPDSLAVSLGERATINCKSSQSLFSSNTNRNYLNWYQQKPGQSPKLLIYHASTRLSGVPDRFSGSGSGTDFTLTISSLQAEDVADYYCQHHYETPLTFGDGTKLEIK
notes: as for B3
Turning to B11, the midpoint of the response in experiment [1], the EC50, lay at 2.43 nM.

B12: 1.3 humanized variant V13 (heavy 2B / light 1C) (antibody, V domains shown)
VH: QVQLQESGPGLVKPAQTLSLTCTVSGFSISTSGYYWSWIRQYPGKRLEWIGYINYGGGTSYNPSLKSRVTISRDTSKNQFSLKLTSVTAADTATYCCATMADRFAFFDVWGQGTMVTVSS
VL: DIVMTQSPDSLAVSLGERATINCLSSQSLFSSNTNRNYLNWYLQKPGQSPKLLIYHASTRLSGVPDRFIGSGSGTDFTLTISSLQAEDVGDYYCQHHYETPLTFGDGTKLEIK
notes: as for B3
As to B12, the EC50 in experiment [1] came to 0.45 nM.

B13: 1.3 humanized variant V3 (heavy 1C / light 1A) (antibody, V domains shown)
VH: QVQLQESGPGLVKPSQTLSLTCTVSGFSISTSGYYWSWIRQFPGKRLEWMGYINYGGGTSYNPSLKSRVTISRDTSKNQFSLKLSSVTAADTATYCCATMADRFAFFDVWGQGTMVTVSS
VL: DIVMTQSPDSLAVSLGERATINCKSSQSLFSSNTNRNYLAWYQQKPGQPPKLLIYHASTRESGVPDRFSGSGSGTDFTLTISSLQAEDVAVYYCQHHYETPLTFGQGTKLEIK
notes: as for B3
In turn, B13 returned a concentration giving a half-maximal response (EC50) in experiment [1] of 0.38 nM.

B14: 1.3 humanized variant V14 (heavy 2C / light 1C) (antibody, V domains shown)
VH: QVQLQESGPGLVKPAQTLSLTCTVSGFSISTSGYYWSWIRQFPGKRLEWMGYINYGGGTSYNPSLKSRVTISRDTSKNQFSLKLTSVTAADTATYCCATMADRFAFFDVWGQGTMVTVSS
VL: DIVMTQSPDSLAVSLGERATINCLSSQSLFSSNTNRNYLNWYLQKPGQSPKLLIYHASTRLSGVPDRFIGSGSGTDFTLTISSLQAEDVGDYYCQHHYETPLTFGDGTKLEIK
notes: as for B3
Molecule B14 yielded an EC50 in experiment [1] of 0.32 nM.

B15: 1.3 humanized variant V6 (heavy 2C / light 1A) (antibody, V domains shown)
VH: QVQLQESGPGLVKPAQTLSLTCTVSGFSISTSGYYWSWIRQFPGKRLEWMGYINYGGGTSYNPSLKSRVTISRDTSKNQFSLKLTSVTAADTATYCCATMADRFAFFDVWGQGTMVTVSS
VL: DIVMTQSPDSLAVSLGERATINCKSSQSLFSSNTNRNYLAWYQQKPGQPPKLLIYHASTRESGVPDRFSGSGSGTDFTLTISSLQAEDVAVYYCQHHYETPLTFGQGTKLEIK
notes: as for B3
B15 had an EC50 in experiment [1] of 0.3 nM.

B16: 1.3 humanized variant V1 (heavy 1A / light 1A) (antibody, V domains shown)
VH: QVQLQESGPGLVKPSQTLSLTCTVSGFSISTSGYYWSWIRQHPGKGLEWIGYINYGGGTYYNPSLKSRVTISVDTSKNQFSLKLSSVTAADTAVYYCATMADRFAFFDVWGQGTMVTVSS
VL: DIVMTQSPDSLAVSLGERATINCKSSQSLFSSNTNRNYLAWYQQKPGQPPKLLIYHASTRESGVPDRFSGSGSGTDFTLTISSLQAEDVAVYYCQHHYETPLTFGQGTKLEIK
notes: Variable domains only; detected with anti-human IgG4 HRP; also called VI; variant 1
In the case of B16, the EC50 in experiment [1] stood at 0.84 nM.
